Test system: recombinant overlapping peptides (ROP) fusion protein composed of 20 overlapping peptides covering HIV Nef (Lai) interspersed with Factor Xa sites (IEGR)

protease Factor Xa (New England Biolabs)
protease digestion, SDS page and mass spectrometry: the ROP protein was cut by Factor Xa into overlapping peptides (ROP peptides) as shown in the mass spectrometry

From patent US9382546
